Results: IntAct's records for PubMed 18093920

B1: Syndecan-3 (Homo sapiens), O75056 (parent)
chain: MKPGPPHRAGAAHGAGAGAGAAAGPGARGLLLPPLLLLLLAGRAAGAQRWRSENFERPVDLEGSGDDDSFPDDELDDLYSGSGSGYFEQESGIETAMRFSPDVALAVSTTPAVLPTTNIQPVGTPFEELPSERPTLEPATSPLVVTEVPEEPSQRATTVSTTMATTAATSTGDPTVATVPATVATATPSTPAAPPFTATTAVIRTTGVRRLLPLPLTTVATARATTPEAPSPPTTAAVLDTEAPTPRLVSTATSRPRALPRPATTQEPDIPERSTLPLGTTAPGPTEVAQTPTPETFLTTIRDEPEVPVSGGPSGDFELPEEETTQPDTANEVVAVGGAAAKASSPPGTLPKGARPGPGLLDNAIDSGSSAAQLPQKSILERKEVLVAVIVGGVVGALFAAFLVTLLIYRMKKKDEGSYTLEEPKQASVTYQKPDKQEEFYA
B2: Syndecan-4 (Homo sapiens), P31431 (parent)
chain: MAPARLFALLLFFVGGVAESIRETEVIDPQDLLEGRYFSGALPDDEDVVGPGQESDDFELSGSGDLDDLEDSMIGPEVVHPLVPLDNHIPERAGSGSQVPTEPKKLEENEVIPKRISPVEESEDVSNKVSMSSTVQGSNIFERTEVLAALIVGGIVGILFAVFLILLLMYRMKKKDEGSYDLGKKPIYKKAPTNEFYA
B3: Syndecan-2 (Homo sapiens), P34741 (parent)
chain: MRRAWILLTLGLVACVSAESRAELTSDKDMYLDNSSIEEASGVYPIDDDDYASASGSGADEDVESPELTTSRPLPKILLTSAAPKVETTTLNIQNKIPAQTKSPEETDKEKVHLSDSERKMDPAEEDTNVYTEKHSDSLFKRTEVLAAVIAGGVIGFLFAIFLILLLVYRMRKKDEGSYDLGERKPSSAAYQKAPTKEFYA
partner: B2 chain

Variants of: B1
Settings: with sdc2_human SDC2, P34741

effect of a mutation on the interaction	Variant
decreasing interaction	G396L
decreasing interaction	G392L

Variants of: B2
Settings: with sdc2_human SDC2, P34741

effect of a mutation on the interaction	Variant
decreasing interaction	G157L

Variants of: B2
Settings: with sdc3_human SDC3, O75056

effect of a mutation on the interaction	Variant
decreasing interaction	G157L

Variants of: B3
Settings: with sdc4_human SDC4, P31431

effect of a mutation on the interaction	Variant
decreasing interaction	G152L
decreasing interaction	G156L
